We go through one molecule from WO2021028359A1 (dated 2021).

The experiment concerns the target HLA-A2 on HLA-A2 positive peripheral blood mononuclear cells (human). The experiment can be described thus: cell-based or functional assay.

Some results are limits rather than exact numbers.

B1: HLA-A2 CAR (anti-HLA-A2 chimeric antigen receptor: CD8 leader, scFv directed against HLA-A2, CD8 alpha linker and transmembrane domain, CD28 activation domain, … (receptor)
chain: SQVQLQQSGPELVKPGASVKMSCKASGYTFTSYHIQWVKQRPGQGLEWIGWIYPGDGSTQYNEKFKGKTTLTADKSSSTAYMLLSSLTSEDSAIYFCAREGTYYAMDYWGQGTSVTVSSGGGGSGGGGSGGGGSDVLMTQTPLSLPVSLGDQVSISCRSSQSIVHSNGNTYLEWYLQKPGQSPKLLIYKVSNRFSGVPDRFSGSGSGTDFTLKISRVEAEDLGVYYCFQGSHVPRTFGGGTKLEIKRTTTPAPRPPTPAPTIASQPLSLRPEACRPAAGGAVHTRGLDFACDIYIWAPLAGTCGVLLLSLVITLYCRSKRSRLLHSDYMNMTPRRPGPTRKHYQPYAPPRDFAAYRSRVKFSRSADAPAYQQGQNQLYNELNLGRREEYDVLDKRRGRDPEMGGKPRRKNPQEGLYNELQKDKMAEAYSEIGMKGERRRGKGHDGLYQGLSTATKDTYDALHMQALPPR
Consider B1, for which the “CD69 cell surface expression on Tregs transduced with TX135 (PGK promoter), 24 h co-incubation, flow cytometry” value came to 3.7 fold; the “CD69 cell surface expression on Tregs transduced with pTX137 (EF1a promoter), 24 h co-incubation, flow cytometry” value is below 2 fold; the “CD69 cell surface expression on Tregs transduced with pTX138 (EF1a promoter + WpreMut6), 24 h co-incubation, flow cytometry” value is below 2 fold.
